Results on one substance are retold here after paper PMC9789309.

The experiment deals with ACE2, membrane-anchored, endogenously expressed on VeroE6 cells (African green monkey (endogenous in VeroE6)). Nature of the experiment: single-molecule force spectroscopy (AFM).

Regarding “SARS-CoV-2 Spike receptor binding domain, Wuhan reference strain, monomer (from UniProt P0DTC2 319-541) (domain or fragment)”, the dissociation constant Kd is 3.2 nM, the koff was 0.00032 s⁻¹ and the kon was 100000 M⁻¹ s⁻¹.
